From patent publication US20260055143A1, “HIGH AFFINITY VARIANTS OF SH2 DOMAINS” (Axoiya Inc., priority 2023, published 2026)

Tests used:
[1] = target: T1, ezrin phosphopeptide (PPV{pTyr}EPV (SEQ ID NO: 258)) (Homo sapiens, UniProt P15311); test: Fluorescence polarization binding assay of purified Fes-SH2 variants with peptide pEZ
T1 construct: made in house; host or cells: peptide: chemical (Fmoc) synthesis; SH2 domains: Escherichia coli BL21(DE3)
Excerpt: Peptide were synthesized using 9-fluorenylmethoxycarbonyl chemistry with the Prelude peptide synthesizer (Gyros Protein Technologies, Inc., Tucson, AZ) on Rink amide MBHA resin (Novabiochem, London, GB). Each peptide N-terminus was functionalized with biotin through a linker composed of two F-aminocaproic acids (Bachem). N-hydroxysuccinimide-fluorescein was used for N-terminal fluorescein labeling of the synthesized Ezrin pTyr-peptide used in fluorescence polarization tests. All peptides were purified using C-18 reverse phase HPLC (Waters) and their identity was confirmed by mass spectrometry on an Orbitrap Elite (ThermoFisher). Phosphopeptides that were used in the study but not synthesized in house were from GenScript.
Fluorescence polarization assays were performed as previously described. Briefly, binding measurements were performed in FP buffer (25 mM HEPES pH 7.5, 100 mM NaCl, 1 mM DTT, 0.01 mg/ml BSA, 0.03% BRIJ-35) by mixing in a 96-well plate 25 nM FITC-labeled Ezrin pTyr-peptide with serial dilutions of Fes-SH2 variants ranging from 1 mM to 22 nM. Samples were equilibrated at room temperature for 30 minutes before reading plates on an HTS Multi-Mode Microplate Reader (Synergy Neo) using an excitation filter of 485 nm and an emission filter of 530 nm. Dissociation constants were determined with Prism (GraphPad Software Inc) using a one-site total binding model.

QGVI{pTyr}SDLNLP = QGVI{pTyr}SDLNLP (Homo sapiens, UniProt P26715); test: Competitive ELISA, Ptn6_C variants; type: binding
Protocol: (§1) Competitive and non-competitive phage ELISAs were performed as previously described with minor modifications to the protocol. Peptide sequences used for these analyses can be found in Table 4.
(§2) Streptavidin (50 ng/well in TBS (50 mM Tris-HCl pH 8.0, 150 mM NaCl) was coated onto MAXISORP plates (Thermo Scientific). Phage binding was detected using HRP conjugated anti-M13 secondary antibody (1/2000 dilution, GE Healthcare) in TBS buffer containing 0.05% Tween-20 (TBT buffer). Phage binding was detected using the 3,3′,5,5′-tetramethylbenzidine (TMB) (Thermo Fisher Scientific) chromogenic substrate. Plates were read using a PowerWave XS microplate reader (BioTek).
(§3) Competitive phage-ELISAs were used to determine binding affinity of SH2 superbinders for their cognate target. ELISAs were performed as previously described, biotinylated and phosphorylated peptides were immobilized on plates at the concentration of 0.2 μM, and available binding sites on streptavidin were blocked by adding 25 μl/well of 50 μM D-biotin in TBS. […] Data were plotted using Prism 6 software (GraphPad Software Inc) and affinity of SH2 domains was inferred from determination of the half maximal inhibition concentration (IC50).
Peptides listed in Table 5 were used to assay for binding affinity of each corresponding SH2 domain.

[2] = target: Ezrin peptide (PPV{pTyr}EPVS (SEQ ID NO: 257)) (Homo sapiens, UniProt P15311); test: Competitive phage ELISA, Fes variants; type: binding; details: IC50-based, fold over Fes wt
Protocol: as §1, §2, §3

cancer cell signaling = details: expression of the autonomous domain; cited from earlier work
[3] = test system: pMT peptide (EEPQ{pTyr}EEIPIY (SEQ ID NO: 181)); test: Competitive phage ELISA, Src variants; type: binding; details: IC50-based, fold over Src wt
Protocol: as §1, §2, §3

B1: wt: unmodified Fes SH2 domain, SEQ ID 21 (protein, listed as Homo sapiens)
chain: WYHGAIPRAEVAELLVHSGDFLVRESQGKQEYVLSVLWDGLPRHFIIQSLDNLYRLEGEGFPSIPLLIDHLLSTQQPLTKKSGVVLHRAV
For B1, the IC50 ([1]; fluorescence polarization against the ezrin phosphopeptide) was 1300 nM and the “Fold Change” value ([1]; fold enhancement in apparent affinity over wt Fes SH2) was 1.

B2: Ptn6_C^wt: wild-type PTN6_C SH2 domain, SEQ ID 59 (protein, listed as Homo sapiens)
chain: WYHGHMSGGQAETLLQAKGEPWTFLVRESLSQPGDFVLSVLSDQPKAGPGSPLRVTHIKVMCEGGRYTVGGLETFDSLTDLVEHFKKTGIEEASGAFVYLRQPY
In the case of B2, the change in affinity (QGVI{pTyr}SDLNLP; with either the sSrc or sFes graft) is reported as “no improvement in affinity” and the change in binding (QGVI{pTyr}SDLNLP; αA-2-Arg mutation alone) is reported as “not sufficient to enhance the binding”.

B3: Fes^sSrc: SEQ ID 145: Fes SH2 domain with sSrc graft (protein)
chain: MKIEEHHHHHHSSGKLGLNDIFEAQKIEWHESSGEDLYFQSGTTMDDYKDDDDKGGSEVQKPLHEQLWYHGAIPRAEVAELLVHSGDFLVRESETVKGAYALSVLWDGLPRHFLIQSLDNLYRLEGEGFPSIPLLIDHLLSTQQPLTKKSGVVLHRAVPSR
With B3 the “enhancement of affinity of the domain (times)” value [2] was 650.

B4: SuperSrc-SH2: SEQ ID 136: high affinity variant of the Src SH2 domain, BC loop SETVKGA (protein)
chain: MKIEEHHHHHHSSGKLGLNDIFEAQKIEWHESSGEDLYFQSGTTMDDYKDDDDKGGSDSIQAEEWYFGKITRRESERLLLNAENPRGTFLVRESETVKGAYALSVSDFDNAKGLNVKHYLIRKLDSGGFYITSRTQFNSLQQLVAYYSKHADGLCHRLTTVCPSR
In the case of B4, the “effect on cancer cell signaling” value (cancer cell signaling) is given as “dominant negative effect”.

B5: Src^sFes: SEQ ID 167: Src SH2 domain with sFes graft (protein)
chain: MKIEEHHHHHHSSGKLGLNDIFEAQKIEWHESSGEDLYFQSGTTMDDYKDDDDKGGSDGIQAEEWYFGKITRRESERLLLNAENPRGTFLVREGQSQPDYVLSVSDFDNAKGLNVKHYIIRKLDSGGFYITSRTQFNSLQQLVAYYSKHADGLCHRLTTVCPSR
In the case of B5, the “enhancement of affinity of the domain (times)” value [3] is reported as 125.
